The values below come from US20100048462A1, “TRUNCATED PTH PEPTIDES WITH A CYCLIC CONFORMATION” (Zealand Pharma A/S, priority 2006, published 2010).

For the experiment, the target named is Saos-2 PTH1R (UniProt Q03431). The experiment can be described thus: cell-based or functional assay.

Bridge positions count the residues as written; N and C are the ends. Square brackets hold non-standard residues; d marks the D form. hArg = N=C(N)NCCCC[C@H](N)C(=O)O; Ac5c = NC1(C(=O)O)CCCC1; Abu = CC[C@H](N)C(=O)O; Aib = CC(C)(N)C(=O)O

B1: H-Ac5c-Val-Aib-Glu-Ile-Gln-Leu-Met-His-Gln-Arg-Ala-Lys( )-Trp-Leu-Asn-Asp( )-NH2 (peptide)
chain: H-[Ac5c]V[Aib]EIQLMHQRAKWLND-NH2
modifications: lactam 13-17
SMILES: CC[C@H](C)[C@H](NC(=O)[C@H](CCC(=O)O)NC(=O)C(C)(C)NC(=O)[C@@H](NC(=O)C1(N)CCCC1)C(C)C)C(=O)N[C@@H](CCC(N)=O)C(=O)N[C@@H](CC(C)C)C(=O)N[C@@H](CCSC)C(=O)N[C@@H](Cc1c[nH]cn1)C(=O)N[C@@H](CCC(N)=O)C(=O)N[C@@H](CCCNC(=N)N)C(=O)N[C@@H](C)C(=O)N[C@H]1CCCCNC(=O)C[C@@H](C(N)=O)NC(=O)[C@H](CC(N)=O)NC(=O)[C@H](CC(C)C)NC(=O)[C@H](Cc2c[nH]c3ccccc23)NC1=O
On to B1, for which the Emax, cAMP efficacy assay in Saos-2 cells (25T, trifluoroacetate salt) (relative to control (SEQ ID NO: 32)) came to 1.04 and the pEC50, cAMP efficacy assay in Saos-2 cells (25T, trifluoroacetate salt) was 8.05 -log(M).

B2: H-Abu-Val-Aib-Glu-Ile-Gln-Leu-Leu-His-Gln-Har-Ala-Lys( )-Trp-Leu-Asn-Asp( )-NH2 (peptide)
chain: H-[Abu]V[Aib]EIQLLHQ[hArg]AKWLND-NH2
modifications: lactam 13-17
SMILES: CC[C@H](N)C(=O)N[C@H](C(=O)NC(C)(C)C(=O)N[C@@H](CCC(=O)O)C(=O)N[C@H](C(=O)N[C@@H](CCC(N)=O)C(=O)N[C@@H](CC(C)C)C(=O)N[C@@H](CC(C)C)C(=O)N[C@@H](Cc1c[nH]cn1)C(=O)N[C@@H](CCC(N)=O)C(=O)N[C@@H](CCCCNC(=N)N)C(=O)N[C@@H](C)C(=O)N[C@H]1CCCCNC(=O)C[C@@H](C(N)=O)NC(=O)[C@H](CC(N)=O)NC(=O)[C@H](CC(C)C)NC(=O)[C@H](Cc2c[nH]c3ccccc23)NC1=O)[C@@H](C)CC)C(C)C
B2: the Emax, cAMP efficacy assay in Saos-2 cells (11T, trifluoroacetate salt) (relative to control (SEQ ID NO: 32)) is 1.04 and the pEC50, cAMP efficacy assay in Saos-2 cells (11T, trifluoroacetate salt) was 7.17 -log(M).

B3: H-Ac5c-Val-Aib-Glu-Ile-Gln-Phe-Leu-His-Gln-Har-Ala-Lys( )-Trp-Leu-Asn-Asp( )-NH2 (peptide)
chain: H-[Ac5c]V[Aib]EIQFLHQ[hArg]AKWLND-NH2
modifications: lactam 13-17
SMILES: CC[C@H](C)[C@H](NC(=O)[C@H](CCC(=O)O)NC(=O)C(C)(C)NC(=O)[C@@H](NC(=O)C1(N)CCCC1)C(C)C)C(=O)N[C@@H](CCC(N)=O)C(=O)N[C@@H](Cc1ccccc1)C(=O)N[C@@H](CC(C)C)C(=O)N[C@@H](Cc1c[nH]cn1)C(=O)N[C@@H](CCC(N)=O)C(=O)N[C@@H](CCCCNC(=N)N)C(=O)N[C@@H](C)C(=O)N[C@H]1CCCCNC(=O)C[C@@H](C(N)=O)NC(=O)[C@H](CC(N)=O)NC(=O)[C@H](CC(C)C)NC(=O)[C@H](Cc2c[nH]c3ccccc23)NC1=O
Regarding B3, the Emax, cAMP efficacy assay in Saos-2 cells (27T, trifluoroacetate salt) (relative to control (SEQ ID NO: 32)) was found to be 0.92 and the pEC50, cAMP efficacy assay in Saos-2 cells (27T, trifluoroacetate salt) was 7.91 -log(M).

B4: H-Ac5c-Val-Aib-Glu-Ile-Gln-Leu-Leu-His-Gln-Har-Ala-Lys( )-Trp-Leu-Asn-Asp( )-OH (peptide)
chain: H-[Ac5c]V[Aib]EIQLLHQ[hArg]AKWLND-OH
modifications: lactam 13-17
SMILES: CC[C@H](C)[C@H](NC(=O)[C@H](CCC(=O)O)NC(=O)C(C)(C)NC(=O)[C@@H](NC(=O)C1(N)CCCC1)C(C)C)C(=O)N[C@@H](CCC(N)=O)C(=O)N[C@@H](CC(C)C)C(=O)N[C@@H](CC(C)C)C(=O)N[C@@H](Cc1c[nH]cn1)C(=O)N[C@@H](CCC(N)=O)C(=O)N[C@@H](CCCCNC(=N)N)C(=O)N[C@@H](C)C(=O)N[C@H]1CCCCNC(=O)C[C@@H](C(=O)O)NC(=O)[C@H](CC(N)=O)NC(=O)[C@H](CC(C)C)NC(=O)[C@H](Cc2c[nH]c3ccccc23)NC1=O
B4: the Emax, cAMP efficacy assay in Saos-2 cells (5T, trifluoroacetate salt) (relative to control (SEQ ID NO: 32)) was found to be 1.16 and the pEC50, cAMP efficacy assay in Saos-2 cells (5T, trifluoroacetate salt) is 7.14 -log(M).

B5: H-Ac5c-Val-Aib-Glu-Ile-Gln-Leu-Met-His-Gln-Har-Ala-Lys( )-Trp-Leu-Asp-Asp( )-NH2 (peptide)
chain: H-[Ac5c]V[Aib]EIQLMHQ[hArg]AKWLDD-NH2
modifications: lactam 13-17
SMILES: CC[C@H](C)[C@H](NC(=O)[C@H](CCC(=O)O)NC(=O)C(C)(C)NC(=O)[C@@H](NC(=O)C1(N)CCCC1)C(C)C)C(=O)N[C@@H](CCC(N)=O)C(=O)N[C@@H](CC(C)C)C(=O)N[C@@H](CCSC)C(=O)N[C@@H](Cc1c[nH]cn1)C(=O)N[C@@H](CCC(N)=O)C(=O)N[C@@H](CCCCNC(=N)N)C(=O)N[C@@H](C)C(=O)N[C@H]1CCCCNC(=O)C[C@@H](C(N)=O)NC(=O)[C@H](CC(=O)O)NC(=O)[C@H](CC(C)C)NC(=O)[C@H](Cc2c[nH]c3ccccc23)NC1=O
In the case of B5, the Emax, cAMP efficacy assay in Saos-2 cells (23T, trifluoroacetate salt) (relative to control (SEQ ID NO: 32)) was determined as 1.16 and the pEC50, cAMP efficacy assay in Saos-2 cells (23T, trifluoroacetate salt) is 7.48 -log(M).

B6: H-Ac5c-Val-Abu-Glu-Ile-Gln-Leu-Leu-His-Gln-Har-Ala-Lys( )-Trp-Leu-Asn-Asp( )-NH2 (peptide)
chain: H-[Ac5c]V[Abu]EIQLLHQ[hArg]AKWLND-NH2
modifications: lactam 13-17
SMILES: CC[C@H](NC(=O)[C@@H](NC(=O)C1(N)CCCC1)C(C)C)C(=O)N[C@@H](CCC(=O)O)C(=O)N[C@H](C(=O)N[C@@H](CCC(N)=O)C(=O)N[C@@H](CC(C)C)C(=O)N[C@@H](CC(C)C)C(=O)N[C@@H](Cc1c[nH]cn1)C(=O)N[C@@H](CCC(N)=O)C(=O)N[C@@H](CCCCNC(=N)N)C(=O)N[C@@H](C)C(=O)N[C@H]1CCCCNC(=O)C[C@@H](C(N)=O)NC(=O)[C@H](CC(N)=O)NC(=O)[C@H](CC(C)C)NC(=O)[C@H](Cc2c[nH]c3ccccc23)NC1=O)[C@@H](C)CC
B6: the Emax, cAMP efficacy assay in Saos-2 cells (15T, trifluoroacetate salt) (relative to control (SEQ ID NO: 32)) is 1.04 and the pEC50, cAMP efficacy assay in Saos-2 cells (15T, trifluoroacetate salt) is 7.22 -log(M).

B7: H-Aib-Val-Ac5c-Glu-Ile-Gln-Leu-Leu-His-Gln-Har-Ala-Lys( )-Trp-Leu-Asn-Asp( )-NH2 (peptide)
chain: H-[Aib]V[Ac5c]EIQLLHQ[hArg]AKWLND-NH2
modifications: lactam 13-17
SMILES: CC[C@H](C)[C@H](NC(=O)[C@H](CCC(=O)O)NC(=O)C1(NC(=O)[C@@H](NC(=O)C(C)(C)N)C(C)C)CCCC1)C(=O)N[C@@H](CCC(N)=O)C(=O)N[C@@H](CC(C)C)C(=O)N[C@@H](CC(C)C)C(=O)N[C@@H](Cc1c[nH]cn1)C(=O)N[C@@H](CCC(N)=O)C(=O)N[C@@H](CCCCNC(=N)N)C(=O)N[C@@H](C)C(=O)N[C@H]1CCCCNC(=O)C[C@@H](C(N)=O)NC(=O)[C@H](CC(N)=O)NC(=O)[C@H](CC(C)C)NC(=O)[C@H](Cc2c[nH]c3ccccc23)NC1=O
For B7, the Emax, cAMP efficacy assay in Saos-2 cells (13T, trifluoroacetate salt) (relative to control (SEQ ID NO: 32)) was 0.96 and the pEC50, cAMP efficacy assay in Saos-2 cells (13T, trifluoroacetate salt) was 7.27 -log(M).

B8: H-Ac5c-Val-Aib-Glu-Ile-Glu-Leu-Leu-His-Gln-Har-Ala-Lys( )-Trp-Leu-Asn-Asp( )-NH2 (peptide)
chain: H-[Ac5c]V[Aib]EIELLHQ[hArg]AKWLND-NH2
modifications: lactam 13-17
SMILES: CC[C@H](C)[C@H](NC(=O)[C@H](CCC(=O)O)NC(=O)C(C)(C)NC(=O)[C@@H](NC(=O)C1(N)CCCC1)C(C)C)C(=O)N[C@@H](CCC(=O)O)C(=O)N[C@@H](CC(C)C)C(=O)N[C@@H](CC(C)C)C(=O)N[C@@H](Cc1c[nH]cn1)C(=O)N[C@@H](CCC(N)=O)C(=O)N[C@@H](CCCCNC(=N)N)C(=O)N[C@@H](C)C(=O)N[C@H]1CCCCNC(=O)C[C@@H](C(N)=O)NC(=O)[C@H](CC(N)=O)NC(=O)[C@H](CC(C)C)NC(=O)[C@H](Cc2c[nH]c3ccccc23)NC1=O
Regarding B8, the Emax, cAMP efficacy assay in Saos-2 cells (29T, trifluoroacetate salt) (relative to control (SEQ ID NO: 32)) came out at 1.27 and the pEC50, cAMP efficacy assay in Saos-2 cells (29T, trifluoroacetate salt) was 6.95 -log(M).
